PMC6274722
deuterohemin = iron-porphyrin joined to the peptide N-terminus

Target: amyloid β 1-42 peptide (Aβ1-42) (UniProt P05067)

deuterohemin-AHTVEK-NH2 (also: His2 imidazole is the fifth ligand of the deuterohemin iron) [Deuterohemin-AlaHisThrValGluLys (DhHP-6)]
particle size (DLS, five days) and morphology (TEM, three days) of Aβ1-42 incubated with DhHP-6 at 10 μM:10 μM, 37 °C: 396 nm
